Assay results reported in patent publication US20040214255A1 (MYRIAD GENETICS, published 2004).
Blank lines part the entries; values can stand above or below the binder they belong to.

T1: 14-3-3-Zeta, amino acids 1-200 (human, UniProt P63104 1-200)
T1 sequence: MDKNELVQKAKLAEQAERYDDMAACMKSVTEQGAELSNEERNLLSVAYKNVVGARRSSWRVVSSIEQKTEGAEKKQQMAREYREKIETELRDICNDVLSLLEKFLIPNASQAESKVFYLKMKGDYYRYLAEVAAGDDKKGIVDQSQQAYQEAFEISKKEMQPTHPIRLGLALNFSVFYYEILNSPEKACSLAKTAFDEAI

T2: Alpha-SNAP, amino acids 36-241 (human, UniProt P54920 36-241)
T2 construct: range 36-241
T2 sequence (looked up): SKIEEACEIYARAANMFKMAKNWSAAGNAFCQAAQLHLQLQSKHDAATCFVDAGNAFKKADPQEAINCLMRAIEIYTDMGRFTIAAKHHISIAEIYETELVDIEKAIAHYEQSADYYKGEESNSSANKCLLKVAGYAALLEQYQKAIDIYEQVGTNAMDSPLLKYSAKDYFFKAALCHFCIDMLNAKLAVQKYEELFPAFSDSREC

T3: Beta-catenin, amino acids 579-782 (human, UniProt P35222 579-781)
T3 construct: range 579-782
T3 sequence (looked up): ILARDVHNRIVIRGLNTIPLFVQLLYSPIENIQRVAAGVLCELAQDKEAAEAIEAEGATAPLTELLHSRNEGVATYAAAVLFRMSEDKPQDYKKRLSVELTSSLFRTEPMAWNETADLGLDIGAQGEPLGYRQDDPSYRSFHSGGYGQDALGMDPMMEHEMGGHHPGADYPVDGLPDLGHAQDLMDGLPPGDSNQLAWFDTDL

B1: PP5, amino acids 1-150 (enzyme, human, UniProt P53041 1-150, looked up)
chain: MAMAEGERTECAEPPRDEPPADGALKRAEELKTQANDYFKAKDYENAIKFYSQAIELNPSNAIYYGNRSLAYLRTECYGYALGDATRAIELDKKYIKGYYRRAASNMALGKFRAALRDYETVVKVKPHDKDAKMKYQECNKIVKQKAFER
notes: range 1-150; also called Protein phosphatase 5
B2: Insulin-Regulated Membrane-Spanning Aminopeptidase (IRAP), amino acids 750-1026 (enzyme, human, UniProt Q9UIQ6 750-1025, looked up)
chain: FDLINYLGNENHTAPITEALFQTDLIYNLLEKLGYMDLASRLVTRVFKLLQNQIQQQTWTDEGTPSMRELRSALLEFACTHNLGNCSTTAMKLFDDWMASNGTQSLPTDVMTTVFKVGAKTDKGWSFLLGKYISIGSEAEKNKILEALASSEDVRKLYWLMKSSLNGDNFRTQKLSFIIRTVGRHFPGHLLAWDFVKENWNKLVQKFPLGSYTIQNIVAGSTYLFSTKTHLSEVQAFFENQSEATFRLRCVQEALEVIQLNIQWMEKNLKSLTWWL
notes: range 750-1026; also called C-terminal portion of IRAP
B3: Tankyrase, amino acids 603-725 (enzyme, human, UniProt O95271 603-725, looked up)
chain: HLQTCRLLLSYGSDPSIISLQGFTAAQMGNEAVQQILSESTPIRTSDVDYRLLEASKAGDLETVKQLCSSQNVNCRDLEGRHSTPLHFAAGYNRVSVVEYLLHHGADVHAKDKGGLVPLHNAC
notes: range 603-725

What was measured:
[1] = target: T4, HSP89, amino acids 537-700 (human, UniProt P07900 537-700); assay: yeast two-hybrid
T4 construct: range 537-700
T4 sequence (P07900 537-700): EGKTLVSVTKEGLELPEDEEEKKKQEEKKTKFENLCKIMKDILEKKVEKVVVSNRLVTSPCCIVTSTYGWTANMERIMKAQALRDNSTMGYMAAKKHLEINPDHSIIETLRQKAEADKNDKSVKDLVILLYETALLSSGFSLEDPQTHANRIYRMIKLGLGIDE
Source text: (§1) The new construct was selected directly in the yeast strain PNY200 for its ability to drive tryptophane synthesis (genotype of this strain: […] trp1-901 leu2-3,112 ura3-52 his3-200 ade2 gal4Δ gal80). In these yeast cells, the bait was produced as a C-terminal fusion protein with the DNA binding domain of the transcription factor Ga14 (amino acids 1 to 147). Prey libraries were transformed into the yeast strain BK100 (genotype of this strain: MATα trp1-901 leu2-3,112 ura3-52 his3-200 gal4Δ gal80 LYS2::GAL-HIS3 GAL2-ADE2 met2::GAL7-lacZ), and selected for the ability to drive leucine synthesis. In these yeast cells, each cDNA was expressed as a fusion protein with the transcription activation domain of the transcription factor Ga14 (amino acids 768 to 881) and a 9 amino acid hemagglutinin epitope tag. PNY200 cells (MATα mating type), expressing the bait, were then mated with BK100 cells (MATa mating type), expressing prey proteins from a prey library. The resulting diploid yeast cells expressing proteins interacting with the bait protein were selected for the ability to synthesize tryptophan, leucine, histidine, and adenine. DNA was prepared from each clone, transformed by electroporation into E. coli strain KC8 (Clontech KC8 electrocompetent cells, Catalog No. C2023-1), and the cells were selected on ampicillin-containing plates in the absence of either tryptophane (selection for the bait plasmid) or leucine (selection for the library plasmid). DNA for both plasmids was prepared and sequenced by the dideoxynucleotide chain termination method. The identity of the bait cDNA insert was confirmed and the cDNA insert from the prey library plasmid was identified using the BLAST program to search against public nucleotide and protein databases. Plasmids from the prey library were then individually transformed into yeast cells together with a plasmid driving the synthesis of lamin and 5 other test proteins, respectively, fused to the Ga14 DNA binding domain. Clones that gave a positive signal in the β-galactosidase assay were considered false-positives and discarded. […] Clones that gave a positive signal in the β-galactosidase assay were considered true positives.

[2] = target: T5, β-Spectrin, amino acids 1592-2096 (human, UniProt Q01082 1592-2096); assay: yeast two-hybrid
T5 construct: range 1592-2096; also called non-erythrocytic beta-spectrin; beta spectrin
T5 sequence (Q01082 1592-2096): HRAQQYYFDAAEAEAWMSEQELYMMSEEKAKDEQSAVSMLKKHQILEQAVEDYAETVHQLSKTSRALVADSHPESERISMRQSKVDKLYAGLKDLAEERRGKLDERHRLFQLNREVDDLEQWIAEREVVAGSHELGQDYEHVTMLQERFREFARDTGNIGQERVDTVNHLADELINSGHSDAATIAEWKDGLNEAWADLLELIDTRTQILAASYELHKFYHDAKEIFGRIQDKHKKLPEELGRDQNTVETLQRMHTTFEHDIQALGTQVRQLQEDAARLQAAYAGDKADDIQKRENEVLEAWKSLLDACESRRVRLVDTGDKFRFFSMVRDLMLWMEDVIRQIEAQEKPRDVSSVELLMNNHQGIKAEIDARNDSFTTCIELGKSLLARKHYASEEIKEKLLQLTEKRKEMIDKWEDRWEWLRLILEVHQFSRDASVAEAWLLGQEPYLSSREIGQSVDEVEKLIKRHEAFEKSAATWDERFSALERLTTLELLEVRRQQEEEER
Source text: as §1

[3] = target: B1; assay: yeast two-hybrid
Source text: as §1

[4] = target: T1, 14-3-3-Zeta, amino acids 1-200; assay: yeast two-hybrid; GLUT4 463-510 with 14-3-3-Zeta 1-200
Source text: The new construct was selected directly in the yeast strain PNY200 for its ability to drive tryptophane synthesis (genotype of this strain: MATα trp1-901 leu2-3,112 ura3-52 his3-200 ade2 gal4Δ gal80). In these yeast cells, the bait was produced as a C-terminal fusion protein with the DNA binding domain of the transcription factor Ga14 (amino acids 1 to 147). Prey libraries were transformed into the yeast strain BK100 (genotype of this strain: MATα trp1-901 leu2-3,112 ura3-52 his3-200 gal4Δ gal80 LYS2::GAL-HIS3 GAL2-ADE2 met2::GAL7-lacZ), and selected for the ability to drive leucine synthesis. In these yeast cells, each cDNA was expressed as a fusion protein with the transcription activation domain of the transcription factor Ga14 (amino acids 768 to 881) and a 9 amino acid hemagglutinin epitope tag. PNY200 cells (MATα mating type), expressing the bait, were then mated with BK100 cells (MATa mating type), expressing prey proteins from a prey library. The resulting diploid yeast cells expressing proteins interacting with the bait protein were selected for the ability to synthesize tryptophan, leucine, histidine, and adenine. […]

[5] = target: T2, Alpha-SNAP, amino acids 36-241; assay: yeast two-hybrid
Source text: as §1

[6] = target: T3, Beta-catenin, amino acids 579-782; assay: yeast two-hybrid
Source text: as §1

[7] = target: T6, Clone C-193 (CARP), amino acids 21-302 (human, UniProt Q15327 21-302); assay: yeast two-hybrid
T6 construct: range 21-302
T6 sequence (Q15327 21-302 limits assumed): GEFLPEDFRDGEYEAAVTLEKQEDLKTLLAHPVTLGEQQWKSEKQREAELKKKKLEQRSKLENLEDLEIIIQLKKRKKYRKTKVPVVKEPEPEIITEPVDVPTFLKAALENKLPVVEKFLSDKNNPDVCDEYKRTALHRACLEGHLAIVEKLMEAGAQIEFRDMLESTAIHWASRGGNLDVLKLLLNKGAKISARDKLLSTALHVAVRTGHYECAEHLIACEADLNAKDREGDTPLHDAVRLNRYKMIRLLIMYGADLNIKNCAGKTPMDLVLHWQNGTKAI
Source text: as §1

Binder: B1
binding result [1]: binds

Binder: B2
binding result [2]: binds

Binder: B3
binding result [3]: binds

binding result [4]: binds | binding result [5]: binds | binding result [6]: binds | binding result [7]: binds
Binder: FTFLRVPETRGRTFDQISAAFHRTPSLLEQEVKPSTELEYLGPDEND (other, human, UniProt P14672 463-509, looked up, range 463-510; also called GLUT4; Glut4) [Glucose Transporter 4, amino acids 463-510]
